Source: paper PMC4597091

Molecular target: PepT2^ECD-S427C, labelled for MST (Rattus norvegicus) (UniProt Q63424)
Assay: MST; 1.5 μM labelled ECD (S437C or S427C, blue maleimide) with 0.03–1,000 μM ligand; 22°C; 25 mM MES pH 6.5, 100 mM NaCl

- Kd: 6 µM
Substance: trypsin (intestinal protease) (enzyme)
